T1: GST-NUC-1 (C. elegans, UniProt Q17778 22-375)
T1 construct: also called NUC-1 GST-fusion protein; not shown: glutathione S-transferase tag encoded by vector pGEX4T-2
T1 sequence (looked up): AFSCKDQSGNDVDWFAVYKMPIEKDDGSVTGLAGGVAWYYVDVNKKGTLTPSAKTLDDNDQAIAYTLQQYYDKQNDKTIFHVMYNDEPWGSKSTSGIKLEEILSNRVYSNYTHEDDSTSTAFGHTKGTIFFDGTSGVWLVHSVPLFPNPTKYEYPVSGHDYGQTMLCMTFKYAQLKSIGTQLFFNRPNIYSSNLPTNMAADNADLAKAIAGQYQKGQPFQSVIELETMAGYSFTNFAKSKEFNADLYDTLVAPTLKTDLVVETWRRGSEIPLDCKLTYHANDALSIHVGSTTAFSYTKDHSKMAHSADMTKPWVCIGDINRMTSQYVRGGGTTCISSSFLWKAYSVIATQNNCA

T2: GST-CRN-3 (C. elegans, UniProt G5EBX6 1-876)
T2 construct: also called CRN-3 GST-fusion protein; not shown: glutathione S-transferase tag encoded by vector pGEX4T-2
T2 sequence: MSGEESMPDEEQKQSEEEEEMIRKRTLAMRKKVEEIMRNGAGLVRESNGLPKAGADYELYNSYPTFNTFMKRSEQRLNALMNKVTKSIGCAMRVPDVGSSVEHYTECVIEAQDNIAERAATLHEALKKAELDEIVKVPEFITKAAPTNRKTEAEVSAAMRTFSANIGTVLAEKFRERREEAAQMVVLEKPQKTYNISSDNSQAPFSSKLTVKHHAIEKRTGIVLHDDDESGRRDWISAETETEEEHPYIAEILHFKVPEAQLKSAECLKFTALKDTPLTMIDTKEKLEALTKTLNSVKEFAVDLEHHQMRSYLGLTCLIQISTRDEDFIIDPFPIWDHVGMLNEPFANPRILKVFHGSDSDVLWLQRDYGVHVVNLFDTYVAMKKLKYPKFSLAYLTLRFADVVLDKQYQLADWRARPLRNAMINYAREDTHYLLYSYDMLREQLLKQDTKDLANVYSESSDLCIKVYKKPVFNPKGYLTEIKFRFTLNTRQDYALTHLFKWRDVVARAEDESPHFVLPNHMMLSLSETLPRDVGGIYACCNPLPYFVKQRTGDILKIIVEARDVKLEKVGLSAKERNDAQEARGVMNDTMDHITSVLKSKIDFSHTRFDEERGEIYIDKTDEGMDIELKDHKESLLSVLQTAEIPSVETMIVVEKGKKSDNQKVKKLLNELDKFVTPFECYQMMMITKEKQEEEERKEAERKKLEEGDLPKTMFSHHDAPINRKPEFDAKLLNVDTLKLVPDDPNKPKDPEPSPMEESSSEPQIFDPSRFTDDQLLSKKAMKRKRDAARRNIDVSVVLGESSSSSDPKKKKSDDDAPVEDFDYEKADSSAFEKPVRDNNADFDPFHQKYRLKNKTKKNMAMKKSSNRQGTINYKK

T3: ^35S-Methionine labeled NUC-1 (C. elegans, UniProt Q17778 22-375, 35S-methionine labelled)
T3 sequence (looked up): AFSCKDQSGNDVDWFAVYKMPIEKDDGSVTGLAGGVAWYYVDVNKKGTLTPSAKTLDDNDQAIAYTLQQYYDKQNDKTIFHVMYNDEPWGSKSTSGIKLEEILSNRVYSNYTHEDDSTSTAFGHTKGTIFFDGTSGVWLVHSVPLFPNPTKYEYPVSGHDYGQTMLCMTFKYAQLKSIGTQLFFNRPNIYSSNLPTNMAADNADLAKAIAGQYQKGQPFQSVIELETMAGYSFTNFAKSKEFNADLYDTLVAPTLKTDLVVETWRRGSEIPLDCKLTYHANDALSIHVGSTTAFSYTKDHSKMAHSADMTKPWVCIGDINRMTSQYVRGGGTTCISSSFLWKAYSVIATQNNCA

T4: ^35S-Methionine labeled CRN-3 (C. elegans, UniProt G5EBX6 1-876)
T4 sequence: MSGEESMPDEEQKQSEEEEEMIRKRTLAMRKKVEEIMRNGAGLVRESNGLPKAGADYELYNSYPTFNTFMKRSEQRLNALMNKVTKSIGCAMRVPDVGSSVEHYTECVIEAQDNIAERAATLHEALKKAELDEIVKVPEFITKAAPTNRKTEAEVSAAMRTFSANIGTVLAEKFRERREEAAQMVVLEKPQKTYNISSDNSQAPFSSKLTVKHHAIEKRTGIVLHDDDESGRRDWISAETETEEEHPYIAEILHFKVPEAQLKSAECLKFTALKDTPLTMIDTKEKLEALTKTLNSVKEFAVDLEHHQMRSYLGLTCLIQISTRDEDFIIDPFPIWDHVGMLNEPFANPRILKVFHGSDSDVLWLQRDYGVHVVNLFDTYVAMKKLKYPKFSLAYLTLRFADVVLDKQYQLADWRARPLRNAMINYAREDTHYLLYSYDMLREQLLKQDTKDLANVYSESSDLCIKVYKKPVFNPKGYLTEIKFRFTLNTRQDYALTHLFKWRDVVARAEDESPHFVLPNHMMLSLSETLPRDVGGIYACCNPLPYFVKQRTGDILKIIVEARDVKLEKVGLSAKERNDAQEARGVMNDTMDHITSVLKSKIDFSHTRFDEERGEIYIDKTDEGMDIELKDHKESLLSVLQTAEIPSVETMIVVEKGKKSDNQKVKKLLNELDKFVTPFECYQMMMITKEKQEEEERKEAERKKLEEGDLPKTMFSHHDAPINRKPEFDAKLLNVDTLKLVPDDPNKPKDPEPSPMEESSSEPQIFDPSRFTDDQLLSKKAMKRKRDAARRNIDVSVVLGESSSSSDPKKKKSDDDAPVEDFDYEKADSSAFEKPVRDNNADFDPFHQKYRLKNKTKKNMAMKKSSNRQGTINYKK

T5: ^35S-Methionine labeled CRN-6 (C. elegans, UniProt P34508-2 18-373, limits assumed, 35S-methionine labelled)
T5 sequence (looked up): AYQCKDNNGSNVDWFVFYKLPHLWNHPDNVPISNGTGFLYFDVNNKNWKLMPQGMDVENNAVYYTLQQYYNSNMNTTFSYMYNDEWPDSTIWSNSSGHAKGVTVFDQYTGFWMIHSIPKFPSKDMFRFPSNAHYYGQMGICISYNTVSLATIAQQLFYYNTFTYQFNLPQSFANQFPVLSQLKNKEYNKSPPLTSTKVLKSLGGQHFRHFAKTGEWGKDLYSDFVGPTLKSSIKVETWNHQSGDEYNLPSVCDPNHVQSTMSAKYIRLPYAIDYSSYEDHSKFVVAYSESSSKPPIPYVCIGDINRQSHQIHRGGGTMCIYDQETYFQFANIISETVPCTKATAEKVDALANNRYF

B1: GST-CPS-6 (other, C. elegans, UniProt Q95NM6 1-308, looked up)
chain: MIGKVAGTAAIAGISFLAGKYSNDDLPIFRNVQSATNVPMNQIQVSEPMTVKPASLNADAMGPSRSAEIMKHGYPGFTNVRTYEDFVLSYDYKTRTAHWVCEHLTPERLKHAEGVDRKLCEFKPDITFPQKFLSQNTDYKCSGFDRGHLAAAGNHRKSQLAVDQTFYLSNMSPQVGRGFNRDKWNDLEMHCRRVAKKMINSYIITGPLYLPKLEGDGKKYIKYQVIGDNNVAVPTHFFKVALFEVTPGKFELESYILPNAVIEDTVEISKFHVPLDAVERSAGLEIFARLDPKSIVKENGAKKGGLLW
notes: GST at the N-terminus as in pGEX vectors; also called CPS-6 GST-fusion protein; not shown: glutathione S-transferase tag encoded by vector pGEX4T-2

Columns and labels:
Experiment in all cases: GST pull-down, 35S-Met protein vs GST fusion; - means no detectable binding (footnote a)
GST-CPS-6 = molecular target: B1
Experimental: (§1) GST fusion protein pull-down assays were performed as described in J. Parrish, H. Metters, L. Chen, D. Xue, Proc. Natl. Acad. Sci. U.S.A. 97, 11916 (2000). Purified GST or GST-fusion proteins (5 μg each) immobilized on glutathione sepharose beads were incubated with ³⁵S-Methionine labeled proteins at 4° C. for 2 hours. The beads were washed extensively and the bound proteins were resolved on a 12% SDS-PAGE and visualized by autoradiography. [0103] cDNAs corresponding to the ORFs were cloned into the pPD129.36 vector via its Nhe I and Xho I sites or the Xho I site alone. Full-length cDNAs were subcloned into the pGEX4T-2 vector for generating GST fusion proteins and for further protein purification and into the pcDNA3.1 vector for in vitro transcription/translation experiments.
(§2) ^aInteractions were evaluated relative to background binding of ³⁵S-Methionine labeled Luciferase to GST-fusion proteins and ³⁵S-Methionine labeled proteins to GST. “−” indicates no detectable binding, “+” indicates an interaction consistently observed above background levels, and “++” indicates a strong interaction. ^bBecause ³⁵S-Methionine labeled CRN-1 binds GST tightly, it was not possible to evaluate interactions between ³⁵S-CRN-1 and various GST-fusion proteins. ND, not determined.

GST-NUC-1 = molecular target: T1, GST-NUC-1
Experimental: as §1, §2

GST-CRN-3 = molecular target: T2, GST-CRN-3
Experimental: as §1, §2

GST-CRN-6 = molecular target: T6, GST-CRN-6 (C. elegans, UniProt P08515 1-218 = GST; P34508 1-373)
T6 construct: Two crn-6 cDNAs (700 bp and 1.1 kb) were isolated; the longer one made the GST fusion; also called CRN-6 GST-fusion protein
Experimental: as §1, §2

[1] = molecular target: T3, ^35S-Methionine labeled NUC-1
Experimental: as §1, §2

[2] = molecular target: T4, ^35S-Methionine labeled CRN-3
Experimental: as §1, §2

[3] = molecular target: T5, ^35S-Methionine labeled CRN-6
Experimental: as §1, §2

| binding result (GST-CPS-6) | binding result (GST-NUC-1) | binding result (GST-CRN-3) | binding result (GST-CRN-6) | binding result [1] | binding result [2] | binding result [3] | Binder |
| --- | --- | --- | --- | --- | --- | --- | --- |
| no binding | no binding | no binding | no binding |  |  |  | full-length ^35S-methionine labeled CPS-6 (enzyme, C. elegans, UniProt Q95NM6 1-308, looked up, 35S-methionine labelled, also called ^35S-CPS-6) MIGKVAGTAAIAGISFLAGKYSNDDLPIFRNVQSATNVPMNQIQVSEPMTVKPASLNADAMGPSRSAEIMKHGYPGFTNVRTYEDFVLSYDYKTRTAHWVCEHLTPERLKHAEGVDRKLCEFKPDITFPQKFLSQNTDYKCSGFDRGHLAAAGNHRKSQLAVDQTFYLSNMSPQVGRGFNRDKWNDLEMHCRRVAKKMINSYIITGPLYLPKLEGDGKKYIKYQVIGDNNVAVPTHFFKVALFEVTPGKFELESYILPNAVIEDTVEISKFHVPLDAVERSAGLEIFARLDPKSIVKENGAKKGGLLW |
|  |  |  |  | no binding | no binding | no binding | B1 |

— patent publication US20050142568A1 (published 2005)
